For 91 substances, abundance fitness results are on record in the Human Domainome abundance scans (Beltran et al. 2025).

± gives the uncertainty stated by the source.

This series is described as follows: abundance fitness (aPCA) (normalised: wild type 0, dead -1); higher = more abundant; growth selection in yeast, the domain comes from the species named. Particulars: Homo sapiens.
With “DnaJ homolog subfamily B member 1 E19R, P25685”, the abundance fitness was -0.452 ± 0.083. The same measure for “DnaJ homolog subfamily B member 1 E19S, P25685”: -0.18 ± 0.069; for “DnaJ homolog subfamily B member 1 E19T, P25685”: -0.36 ± 0.073. Next, “DnaJ homolog subfamily B member 1 E19V, P25685”: -0.491 ± 0.093. As to “DnaJ homolog subfamily B member 1 E19W, P25685”, the abundance fitness is -1.25 ± 0.17. Next, “DnaJ homolog subfamily B member 1 E19Y, P25685”: -1.06 ± 0.14; “DnaJ homolog subfamily B member 1 E38A, P25685”: -0.29 ± 0.26. Take “DnaJ homolog subfamily B member 1 E38C, P25685”: the abundance fitness is -0.027 ± 0.11. With “DnaJ homolog subfamily B member 1 E38D, P25685”, the abundance fitness was -0.287 ± 0.24.

Take “DnaJ homolog subfamily B member 1 E38F, P25685”: the abundance fitness is -0.127 ± 0.12. Next, “DnaJ homolog subfamily B member 1 E38G, P25685”: -0.068 ± 0.098; “DnaJ homolog subfamily B member 1 E38H, P25685”: 0.017 ± 0.2; “DnaJ homolog subfamily B member 1 E38I, P25685”: -0.034 ± 0.15. For the substance “DnaJ homolog subfamily B member 1 E38L, P25685”, the abundance fitness is -0.099 ± 0.061. In the case of “DnaJ homolog subfamily B member 1 E38M, P25685”, the abundance fitness was -0.041 ± 0.1. As for “DnaJ homolog subfamily B member 1 E38N, P25685”, the abundance fitness is -0.179 ± 0.2.

Take “DnaJ homolog subfamily B member 1 E38P, P25685”: the abundance fitness is -0.342 ± 0.14.

For the substance “DnaJ homolog subfamily B member 1 E38R, P25685”, the abundance fitness was -0.172 ± 0.091. Next, “DnaJ homolog subfamily B member 1 E38S, P25685”: -0.106 ± 0.083.

In the case of “DnaJ homolog subfamily B member 1 E38T, P25685”, the abundance fitness is -0.041 ± 0.089. The same measure for “DnaJ homolog subfamily B member 1 E38V, P25685”: -0.006 ± 0.096.

For “DnaJ homolog subfamily B member 1 E38W, P25685”, the abundance fitness is -0.019 ± 0.081.

In turn, “DnaJ homolog subfamily B member 1 E42A, P25685” gave an abundance fitness of 0.002 ± 0.077. As for “DnaJ homolog subfamily B member 1 E42C, P25685”, the abundance fitness was -0.048 ± 0.097. The same measure for “DnaJ homolog subfamily B member 1 E42D, P25685”: 0.116 ± 0.11; for “DnaJ homolog subfamily B member 1 E42F, P25685”: -0.171 ± 0.1; for “DnaJ homolog subfamily B member 1 E42G, P25685”: -0.153 ± 0.097. The same measure for “DnaJ homolog subfamily B member 1 E42H, P25685”: -0.003 ± 0.098; for “DnaJ homolog subfamily B member 1 E42I, P25685”: -0.105 ± 0.12; for “DnaJ homolog subfamily B member 1 E42K, P25685”: 0.301 ± 0.14. Next, “DnaJ homolog subfamily B member 1 E42L, P25685”: 0.086 ± 0.055; “DnaJ homolog subfamily B member 1 E42M, P25685”: 0.038 ± 0.079.

For the substance “DnaJ homolog subfamily B member 1 E42N, P25685”, the abundance fitness was 0.027 ± 0.13. Next, “DnaJ homolog subfamily B member 1 E42P, P25685”: 0.028 ± 0.087; “DnaJ homolog subfamily B member 1 E42Q, P25685”: -0.157 ± 0.12.

“DnaJ homolog subfamily B member 1 E42R, P25685” gave an abundance fitness of 0.024 ± 0.058. With “DnaJ homolog subfamily B member 1 E42S, P25685”, the abundance fitness was -0.016 ± 0.065.

Consider “DnaJ homolog subfamily B member 1 E42T, P25685”, for which the abundance fitness is -0.052 ± 0.093. The same measure for “DnaJ homolog subfamily B member 1 E42W, P25685”: -0.122 ± 0.11; for “DnaJ homolog subfamily B member 1 E42Y, P25685”: -0.188 ± 0.1; for “DnaJ homolog subfamily B member 1 E43A, P25685”: 0.025 ± 0.13. The same measure for “DnaJ homolog subfamily B member 1 E43C, P25685”: -0.07 ± 0.2; for “DnaJ homolog subfamily B member 1 E43D, P25685”: -0.153 ± 0.14. Next, “DnaJ homolog subfamily B member 1 E43F, P25685”: -0.093 ± 0.19; “DnaJ homolog subfamily B member 1 E43G, P25685”: 0.009 ± 0.074. “DnaJ homolog subfamily B member 1 E43I, P25685” had an abundance fitness of 0.109 ± 0.12. Next, “DnaJ homolog subfamily B member 1 E43K, P25685”: 0.156 ± 0.1; “DnaJ homolog subfamily B member 1 E43L, P25685”: 0.105 ± 0.066; “DnaJ homolog subfamily B member 1 E43N, P25685”: -0.003 ± 0.21. On to “DnaJ homolog subfamily B member 1 E43P, P25685”, for which the abundance fitness was -0.177 ± 0.13.

As to “DnaJ homolog subfamily B member 1 E43Q, P25685”, the abundance fitness is 0.086 ± 0.1.

On to “DnaJ homolog subfamily B member 1 E43R, P25685”, for which the abundance fitness was 0.11 ± 0.051. Take “DnaJ homolog subfamily B member 1 E43S, P25685”: the abundance fitness is -0.014 ± 0.092. Take “DnaJ homolog subfamily B member 1 E43T, P25685”: the abundance fitness was -0.109 ± 0.12.

With “DnaJ homolog subfamily B member 1 E43V, P25685”, the abundance fitness came to 0.112 ± 0.062. As for “DnaJ homolog subfamily B member 1 E43W, P25685”, the abundance fitness was -0.043 ± 0.069. Next, “DnaJ homolog subfamily B member 1 E43Y, P25685”: 0.196 ± 0.32. Substance “DnaJ homolog subfamily B member 1 E47A, P25685” registered an abundance fitness of 0.021 ± 0.088. Next, “DnaJ homolog subfamily B member 1 E47C, P25685”: -0.218 ± 0.095; “DnaJ homolog subfamily B member 1 E47D, P25685”: -0.073 ± 0.13. Take “DnaJ homolog subfamily B member 1 E47F, P25685”: the abundance fitness was -0.277 ± 0.098. Next, “DnaJ homolog subfamily B member 1 E47G, P25685”: -0.054 ± 0.076; “DnaJ homolog subfamily B member 1 E47H, P25685”: -0.009 ± 0.11; “DnaJ homolog subfamily B member 1 E47K, P25685”: -0.43 ± 0.12. For “DnaJ homolog subfamily B member 1 E47M, P25685”, the abundance fitness was -0.186 ± 0.096.

For “DnaJ homolog subfamily B member 1 E47N, P25685”, the abundance fitness is 0.333 ± 0.21.

Regarding “DnaJ homolog subfamily B member 1 E47P, P25685”, the abundance fitness is -0.212 ± 0.088. Next, “DnaJ homolog subfamily B member 1 E47Q, P25685”: -0.153 ± 0.1; “DnaJ homolog subfamily B member 1 E47R, P25685”: -0.071 ± 0.068; “DnaJ homolog subfamily B member 1 E47S, P25685”: -0.099 ± 0.072.

As for “DnaJ homolog subfamily B member 1 E47T, P25685”, the abundance fitness was -0.118 ± 0.068. On to “DnaJ homolog subfamily B member 1 E47V, P25685”, for which the abundance fitness was -0.295 ± 0.088. With “DnaJ homolog subfamily B member 1 E50A, P25685”, the abundance fitness is -0.241 ± 0.11. The same measure for “DnaJ homolog subfamily B member 1 E50C, P25685”: -0.311 ± 0.095; for “DnaJ homolog subfamily B member 1 E50D, P25685”: -0.074 ± 0.087. Next, “DnaJ homolog subfamily B member 1 E50F, P25685”: -0.612 ± 0.19. For the substance “DnaJ homolog subfamily B member 1 E50G, P25685”, the abundance fitness was -0.326 ± 0.13. The same measure for “DnaJ homolog subfamily B member 1 E50H, P25685”: -0.222 ± 0.17; for “DnaJ homolog subfamily B member 1 E50I, P25685”: -0.011 ± 0.1.

With “DnaJ homolog subfamily B member 1 E50L, P25685”, the abundance fitness was -0.026 ± 0.052. The same measure for “DnaJ homolog subfamily B member 1 E50M, P25685”: -0.181 ± 0.12; for “DnaJ homolog subfamily B member 1 E50N, P25685”: -0.328 ± 0.1. Regarding “DnaJ homolog subfamily B member 1 E50P, P25685”, the abundance fitness is -0.885 ± 0.18. As to “DnaJ homolog subfamily B member 1 E50Q, P25685”, the abundance fitness is -0.177 ± 0.082. The same measure for “DnaJ homolog subfamily B member 1 E50R, P25685”: -0.036 ± 0.062. The same measure for “DnaJ homolog subfamily B member 1 E50S, P25685”: -0.211 ± 0.066; for “DnaJ homolog subfamily B member 1 E50V, P25685”: -0.085 ± 0.078; for “DnaJ homolog subfamily B member 1 E50W, P25685”: -0.34 ± 0.11.

In the case of “DnaJ homolog subfamily B member 1 E50Y, P25685”, the abundance fitness was -0.096 ± 0.12. The same measure for “DnaJ homolog subfamily B member 1 E62C, P25685”: -0.361 ± 0.14; for “DnaJ homolog subfamily B member 1 E62D, P25685”: -0.31 ± 0.13.
